{
  "source": "patent US11166479B2",
  "about": "“Feedstuffs for aquaculture comprising stearidonic acid” (COMMONWEALTH SCIENTIFIC AND INDUSTRIAL RESEARCH ORGANISATION, priority 2005, dated 2021)",
  "molecules": {"B1": {"name": "EplD6Des: Δ6 desaturase from Echium plantagineum, polypeptide of 438 amino acid residues, expressed in yeast from plasmid pXZP271 (protein, listed as Echium plantagineum)", "chain": "MANAIKKYITAEELKKHDKAGDLWISIQGKIYDVSDWLKDHPGGNFPLLSLAGQEVTDAFVAFHSGTTWKLLEKFFTGYYLKDYSVSEVSKDYRKLVFEFNKMGLFDKKGHIVLVTVLFIAMLFGMSVYGVLFCEGVLVHLLAGGLMGFVWIQSGWIGHDAGHYIVMPDARLNKLMGIVAANCLSGISIGWWKWNHNAHHIACNSLDYDPDLQYIPFLVVSSKLFSSLTSHFYEKKLTFDSLSRFFVSHQHWTFYPVMCMARVNMFVQSLIMLLTKRNVFYRSQELLGLVVFWIWYPLLVSCLPNWGERVMFVVASLSVTGMQQVQFSLNHFSSSVYVGQPKGNDWFEKQTCGTLDISCPSWMDWFHGGLQFQVEHHLFPKLPRCHLRKISPFVMELCKKHNLSYNCASFSEANNMTLRTLRDTALQARDLTKPLPKNLVWEALNTHG"}},
  "system": "yeast strain S288Cα",
  "experiment": "Heterologous expression of E. plantagineum Δ6-desaturase gene in yeast, conversion of fed fatty acids",
  "type": "cell-based",
  "conditions": "20° C., 2-3 days",
  "procedure": "Expression experiments in yeast were carried out to confirm that the cloned E. platangineum gene (cDNA sequence provided as SEQ ID NO:25) encoded a Δ6-desaturase enzyme. The gene fragment was inserted as an XbaI-SacI fragment into the […] sites of the yeast expression vector pSOS (Stratagene) containing the constitutive ADH1 promoter, resulting in plasmid pXZP271. This was transformed into yeast strain S288Cα by a heat shock method and transformant colonies selected by plating on minimal media plates. For the analysis of enzyme activity, 2 mL yeast clonal cultures were grown to an O.D.600 of 1.0 in yeast minimal medium in the presence of 0.1% NP-40 at 30° C. with shaking. Precursor free-fatty acids, either linoleic or linolenic acid as 25 mM stocks in ethanol, were added so that the final concentration of fatty acid was 0.5 mM. The cultures were transferred to 20° C. and grown for 2-3 days with shaking. Yeast cells were harvested by repeated centrifugation and washing first with 0.1% NP-40, then 0.05% NP-40 and finally with water. Fatty acids were extracted and analyzed. The peak identities of fatty acids were confirmed by GC-MS.",
  "data": [
    {"molecule": "B1", "values": [
      {"measurement": "LA converted to GLA", "setting": "0.5 mM linoleic acid fed", "result": "Around 2.9%"},
      {"measurement": "ALA converted to SDA", "setting": "0.5 mM linolenic acid fed", "result": "~2.3", "unit": "%"}
    ]}
  ]
}
